Measurements published in patent US20050148508.
Positions count from the first letter of the chain named.

What was measured:
[1] = test system: T1, pigment epithelium derived factor (PEDF) isolated from human plasma
T1 sequence: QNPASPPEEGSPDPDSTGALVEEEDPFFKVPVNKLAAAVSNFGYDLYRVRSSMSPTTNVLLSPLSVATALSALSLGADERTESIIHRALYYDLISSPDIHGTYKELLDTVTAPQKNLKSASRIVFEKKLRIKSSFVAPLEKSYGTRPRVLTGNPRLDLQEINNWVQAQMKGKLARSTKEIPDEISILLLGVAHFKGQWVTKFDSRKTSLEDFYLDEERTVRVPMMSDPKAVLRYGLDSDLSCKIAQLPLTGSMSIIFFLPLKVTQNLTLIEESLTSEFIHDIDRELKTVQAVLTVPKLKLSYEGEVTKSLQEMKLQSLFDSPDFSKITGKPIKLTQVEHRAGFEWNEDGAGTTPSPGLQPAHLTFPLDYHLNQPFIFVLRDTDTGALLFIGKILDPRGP

[2] = molecular target: T2, recombinant human PEDF expressed in CHO cells (UniProt P36955)
T2 sequence: T1 sequence with M53T, D78E, E79Q

protein kinase CK2 holoenzyme
phosphorylation by CK2 in the presence of poly-L-lysine (autoradiography) [1]: both rPEDF and pIPEDF were phosphorylated by CK2 in the presence of poly-L-lysine
stoichiometry of phosphorylation [1]: ˜0.02 mol of phosphate per mol of plasma PEDF
stoichiometry of phosphorylation, plasma PEDF heat-treated (15 min at 56° C.) before phosphorylation [1]: reached a plateau at ˜0.12 mol/mol
phosphorylation by CK2 in the presence of poly-L-lysine (autoradiography) [2]: both rPEDF and pIPEDF were phosphorylated by CK2 in the presence of poly-L-lysine
stoichiometry of phosphorylation [2]: ˜0.1 mol of phosphate per mol of rPEDF
stoichiometry of phosphorylation, rPEDF heat-treated (15 min at 56° C.) before phosphorylation [2]: reached a plateau at ˜0.25 mol/mol
